Results taken from patent US20240270871A1 (HUMMINGBIRD BIOSCIENCE PTE, published 2024).
Read-outs that look alike come from different tables or passages of the source.

What was measured:
Test in all cases: BLI (Octet QK384), IgG captured on anti-human Fc (AHC) biosensors, recombinant human HER3 as analyte, 1:1 global fit, averaged
recombinant human HER3 [1] = biological target: T1, recombinant human HER3 (human, UniProt P21860 20-643, limits assumed)
Experimental: (§1) Biosensors were first dipped in wells containing assay buffer for 60 s to obtain baseline readings, and then IgGs (at a concentration of 12.5 nM) were captured for 120 s, followed by PBST wash for 60 s to remove any unbound antibody or non-specifically-bound protein and the second baseline was collected after IgG capture. Kinetic measurements for antigen binding were performed by dipping each of the antibody-coated biosensors into wells containing a single serial diluted concentration of recombinant human HER3 for 120 s, followed by a 120 s dissociation time by transferring the biosensors into assay buffer containing wells. AHC biosensors were regenerated for 5 s×4 times after each kinetic cycle using 10 mM glycine pH 1.7 to remove bound protein and washed with assay buffer before a new kinetic cycle. Six 1:2 serial dilutions of recombinant human HER3 (at concentrations ranging from 500 nM to 16 nM), were used to ensure an ideal concentration range of antigen, and binding signal spanning the dynamic range of the assay. Measurements for all sensors were generated in real time in parallel. Data analysis was preformed using Octet QK384 analysis 9.0 software (Pall ForteBio) according to manufacturer's recommendations for analysing a high-affinity antigen-antibody kinetics. […]

recombinant human HER3 [2] = biological target: T1, recombinant human HER3; remark: listed apart in the source
Experimental: as §1

recombinant human HER3 [3] = biological target: T1, recombinant human HER3; remark: listed apart in the source
Experimental: as §1

recombinant human HER3 [4] = biological target: T1, recombinant human HER3; remark: listed apart in the source
Experimental: as §1

recombinant human HER3 [5] = biological target: T1, recombinant human HER3; remark: listed apart in the source
Experimental: as §1

recombinant human HER3 [6] = biological target: T1, recombinant human HER3; remark: listed apart in the source
Experimental: as §1

recombinant human HER3 [7] = biological target: T1, recombinant human HER3; remark: listed apart in the source
Experimental: as §1

Measured: Kd

T1 sequence (P21860 20-643 limits assumed): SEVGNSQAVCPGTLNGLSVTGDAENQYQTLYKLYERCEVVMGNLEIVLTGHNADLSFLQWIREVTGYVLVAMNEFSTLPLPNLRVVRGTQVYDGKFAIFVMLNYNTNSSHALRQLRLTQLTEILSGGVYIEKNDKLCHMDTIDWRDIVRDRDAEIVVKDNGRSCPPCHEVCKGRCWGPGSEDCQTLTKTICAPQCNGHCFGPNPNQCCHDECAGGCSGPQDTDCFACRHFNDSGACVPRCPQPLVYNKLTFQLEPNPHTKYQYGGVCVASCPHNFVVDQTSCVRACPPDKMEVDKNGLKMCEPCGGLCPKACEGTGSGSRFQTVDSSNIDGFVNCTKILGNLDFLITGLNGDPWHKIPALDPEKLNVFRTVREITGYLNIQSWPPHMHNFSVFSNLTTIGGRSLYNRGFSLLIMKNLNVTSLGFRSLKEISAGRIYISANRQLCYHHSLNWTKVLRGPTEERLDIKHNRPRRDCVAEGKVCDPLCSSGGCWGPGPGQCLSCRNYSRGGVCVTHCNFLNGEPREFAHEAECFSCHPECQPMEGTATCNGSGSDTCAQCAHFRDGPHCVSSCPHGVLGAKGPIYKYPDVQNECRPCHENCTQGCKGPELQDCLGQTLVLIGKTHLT

B1: 10D1F hIgG1 (antibody, V domains shown)
VH: QVQLQESGPGLVKPSQTLSLTCTVSGYSITSGYSWHWIRQHPGKGLEWIGSIRYSGGTDYNPSLKSLVTISADTSKNQFSLKLSSVTAADTAVYYCARMTTAPWYPFDYWGQGTTVTVSS
VL: DIQMTQSPSSVSASVGDRVTITCKASQIVGSNVAWYQQKPGKAPEPLIYSASYLYSGVPSRFSGSGSGTDFTLTISSLQPEDFATYYCQQYSSHPLTFGQGTKLEIKR
notes: also called 10D1F.A; antibody product of clones 2-1.1, 2-1.2, 2-1.3, 2-1.4, 2-3.12, 2-3.13, 2-3.15
< 1 pM: all assays above
